# According to patent US20130209489A1 (Amgen, published 2013):
# T1: Activin AB (UniProt P08476 311-426; P09529 293-407)
# T1 construct: the two chains follow from the usual meaning of Activin AB
# T1 sequence (looked up) 1: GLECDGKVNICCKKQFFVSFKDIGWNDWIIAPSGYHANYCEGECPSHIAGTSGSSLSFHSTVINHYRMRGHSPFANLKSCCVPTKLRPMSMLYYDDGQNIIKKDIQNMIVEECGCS
# T1 sequence (looked up) 2: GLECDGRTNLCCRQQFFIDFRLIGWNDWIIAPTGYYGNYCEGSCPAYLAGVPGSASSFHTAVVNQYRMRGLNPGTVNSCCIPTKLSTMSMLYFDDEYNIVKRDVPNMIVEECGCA
# T2: Activin A (UniProt P08476 311-426)
# T2 sequence (looked up): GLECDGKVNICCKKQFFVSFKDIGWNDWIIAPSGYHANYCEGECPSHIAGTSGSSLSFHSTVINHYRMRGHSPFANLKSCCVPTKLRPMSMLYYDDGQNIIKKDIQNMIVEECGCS
# T3: BMP9 (UniProt Q9UK05 320-429)
# T3 sequence (looked up): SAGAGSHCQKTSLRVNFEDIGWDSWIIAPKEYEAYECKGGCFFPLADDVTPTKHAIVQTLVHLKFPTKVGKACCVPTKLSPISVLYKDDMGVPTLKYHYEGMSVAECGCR
# T4: GDF3 (UniProt Q9NR23 251-364)
# T4 sequence (looked up): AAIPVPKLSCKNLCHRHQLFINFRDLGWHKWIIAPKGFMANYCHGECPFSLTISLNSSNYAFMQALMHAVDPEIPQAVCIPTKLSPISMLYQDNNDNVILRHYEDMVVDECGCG
# T5: BMP4 (UniProt P12644 293-408)
# T5 sequence (looked up): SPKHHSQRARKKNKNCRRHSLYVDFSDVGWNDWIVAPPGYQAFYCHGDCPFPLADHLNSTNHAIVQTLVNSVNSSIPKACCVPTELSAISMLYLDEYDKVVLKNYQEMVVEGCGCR
# T6: BMP10 (UniProt O95393 317-424)
# T6 sequence (looked up): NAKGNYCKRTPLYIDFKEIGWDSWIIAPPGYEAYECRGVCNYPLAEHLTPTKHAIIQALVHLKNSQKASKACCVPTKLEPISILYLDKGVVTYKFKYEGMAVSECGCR
# T7: Activin AC (UniProt P08476 311-426; P55103 237-352)
# T7 construct: the two chains follow from the usual meaning of Activin AC
# T7 sequence (looked up) 1: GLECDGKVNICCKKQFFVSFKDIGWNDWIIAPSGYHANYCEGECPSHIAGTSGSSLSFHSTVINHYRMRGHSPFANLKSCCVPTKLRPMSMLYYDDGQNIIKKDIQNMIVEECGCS
# T7 sequence (looked up) 2: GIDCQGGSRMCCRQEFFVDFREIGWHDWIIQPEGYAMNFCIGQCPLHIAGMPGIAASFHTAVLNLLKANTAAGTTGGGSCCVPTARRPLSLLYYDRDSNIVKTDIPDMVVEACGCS
# T8: Peptide K (reduced LysC peptide, 40-54) (human)
# T8 construct: From TCEP reduction of peptide G
# T8 peptide: ANYCSGECEFVFLQK
# T9: Peptide J (reduced LysC peptide, 98-109) (human)
# T9 construct: From TCEP reduction of peptide G
# T9 peptide: IPAMVVDRCGCS
# T10: Peptide N (chymotryptic peptide, Cys knot, dimer) (human)
# T10 chain 1: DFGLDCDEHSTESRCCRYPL
# T10 chain 2: KANYCSGECEFVF
# T10 chain 3: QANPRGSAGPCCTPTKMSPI
# T10 chain 4: GKIPAMVVDRCGCS
# T11: Peptide M (reduced LysC peptide, 1-36) (human)
# T11 construct: From TCEP reduction of peptide G
# T11 peptide: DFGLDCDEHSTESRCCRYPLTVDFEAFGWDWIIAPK
# T12: Peptide H (reduced LysC peptide, 91-97) (human)
# T12 peptide: EQIIYGK
# T13: Peptide I (reduced LysC peptide, 55-78) (human)
# T13 construct: From TCEP reduction of peptide G
# T13 peptide: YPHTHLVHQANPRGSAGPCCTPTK
# T14: Peptide B (CNBr peptide, 85-101) (human)
# T14 construct: both are this molecule; also called Peptide D; Reduced CNBr peptide
# T14 peptide: LYFNGKEQIIYGKIPAM
# T15: Peptide F (LysC peptide, 79-90) (human)
# T15 peptide: MSPINMLYFNGK
# Tests used:
# mature human myostatin = mature human myostatin (human, UniProt O14793 267-375); assay: cell-based or functional assay
# Activin AB = target: T1, Activin AB; assay: Biacore SPR, ligand flowed over immobilized antibody
# Method: (§1) Binding specificity analysis was carried out for 12A5-5 using Biacore™, a label-free surface plasmon resonance (SPR) based technology for studying biomolecular interactions in real time (GE Healthcare, Chalfont St. Giles, UK). 12A5-5, and ActRIIB/Fc were made in house, TGFbetaR11/Fc and BMPR-1A/Fc were from R & D Systems (Minneapolis, Minn.). […] Ten nanomolar of each of the ligands was flowed over immobilized high density antibody and receptor surfaces. Binding of Myostatin, GDF11, GDF3, Activin A, Activin AB, Activin AC, TGF-beta1, BMP4, BMP9, and BMP10 to their corresponding receptors was tested and used as control to normalize the signals of the ligands binding to 12A5-5 and the other receptors.
# TGF-beta1 = TGF-beta1 (UniProt P01137 279-390); assay: as above
# Chain of TGF-beta1 (P01137 279-390 limits assumed): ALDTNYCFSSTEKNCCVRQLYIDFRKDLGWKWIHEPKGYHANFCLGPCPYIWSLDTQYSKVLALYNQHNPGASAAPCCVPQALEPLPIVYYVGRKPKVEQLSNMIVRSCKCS
# Method: as §1
# Activin A = target: T2, Activin A; assay: as above
# Method: as §1
# BMP9 = target: T3, BMP9; assay: as above
# Method: as §1
# GDF3 = target: T4, GDF3; assay: as above
# Method: as §1
# BMP4 = target: T5, BMP4; assay: as above
# Method: as §1
# BMP10 = target: T6, BMP10; assay: as above
# Method: as §1
# Activin AC = target: T7, Activin AC; assay: as above
# Method: as §1
# [1] = target: T8, Peptide K (reduced LysC peptide, 40-54); assay: BIAcore competition: 12A5-5 pre-incubated with the HPLC peptide fraction in solution, then passed over immobilized human myostatin
# Method: (§2) The strategy for characterizing the epitopes bound by anti-myostatin neutralizing monoclonal antibodies was to use various CNBr—, LysC— and chymotrypsin-generated human myostatin peptides and determine which peptides could be bound by the antibody. In one aspect, this was tested in a BIAcore® competition binding assay where the binding of 12A5-5 to human myostatin immobilized on a BIAcore® chip was determined in the presence or absence of each of the various isolated HPLC peptide fractions. In the absence of any competing peptides, 12A5-5 was able to bind the human myostatin on the chip and produce an RU (resonance unit) response. […] This general procedure was repeated individually for each peptide. […] These binding patterns, coupled with the known identity of the various myostatin peptides were used to determine which regions of myostatin were important (or necessary) for the binding of antibody 12A5-5.
# [2] = target: T9, Peptide J (reduced LysC peptide, 98-109); assay: as above
# Method: as §2
# [3] = target: T10, Peptide N (chymotryptic peptide, Cys …); assay: as above
# Method: as §2
# [4] = target: T11, Peptide M (reduced LysC peptide, 1-36); assay: as above
# Method: as §2
# [5] = target: T12, Peptide H (reduced LysC peptide, 91-97); assay: as above
# Method: as §2
# [6] = target: T13, Peptide I (reduced LysC peptide, 55-78); assay: as above
# Method: as §2
# [7] = target: T14, Peptide B (CNBr peptide, 85-101); assay: as above
# Method: as §2
# [8] = target: T15, Peptide F (LysC peptide, 79-90); assay: as above
# Method: as §2
binder,measurement,setting,value
"anti-myostatin neutralizing monoclonal antibody 12A5-5 (antibody, V domains shown, in the KinExA assay it was detected with a goat anti-human-Fc antibody, so it carries a human Fc; also called Mab 12A5-5; MAb 12A5-5) VH: EVQLVESGGGLVQPGGSLRLSCAASGFTFSRYWMNWVRQAPGKGLEWVAQIRLKSDNYATHYAESVKGRFTISRDNAKNSLYLQMNSLRAEDTAVYYCTEGLDYWGQGTTVTVSS VL: DIQMTQSPSSLSASVGDRVTITCKASQDINKYVAWYQQKPGKAPKLLIYYTSWLQPGVPSRFSGSGSGTDFTFTISSLQPEDIATYYCLQYDNLLYTFGQGTKLEIK","IC50 (nM), C2C12/pMARE luciferase reporter cell myostatin activity assay",mature human myostatin,1.85 nM
same,binding result,Activin AB,no binding (tested: Ten nanomolar of each of the ligands)
same,binding result,TGF-beta1,no binding (tested: Ten nanomolar of each of the ligands)
same,binding result,Activin A,no binding (tested: Ten nanomolar of each of the ligands)
same,binding result,BMP9,no binding (tested: Ten nanomolar of each of the ligands)
same,binding result,GDF3,no binding (tested: Ten nanomolar of each of the ligands)
same,binding result,BMP4,no binding (tested: Ten nanomolar of each of the ligands)
same,binding result,BMP10,no binding (tested: Ten nanomolar of each of the ligands)
same,binding result,Activin AC,no binding (tested: Ten nanomolar of each of the ligands)
same,binding result,[1],no binding (tested: peptide concentration not printed)
same,binding result,[2],no binding (tested: peptide concentration not printed)
same,binding result,[3],no binding (tested: peptide concentration not printed)
same,binding result,[4],no binding (tested: peptide concentration not printed)
same,binding result,[5],no binding (tested: peptide concentration not printed)
same,binding result,[6],no binding (tested: peptide concentration not printed)
same,binding result,[7],no binding (tested: peptide concentration not printed)
same,binding result,[8],no binding (tested: peptide concentration not printed)
